Assays:
[1] = target: Tat AcK50 peptide SYGR-AcK-[…] (SEQ ID NO:50) (Human Immunodeficiency Virus type 1); assay: NMR 2D 1H-15N HSQC titration; 'interacts strongly'
[2] = target: T1, Tat AcK28 peptide TNCYCK-AcK-CCFH (SEQ ID NO:58) (Human Immunodeficiency Virus type 1); assay: NMR 2D 1H-15N HSQC titration; 'binds weakly'
T1 construct: Synthetic peptide

[3] = target: T2, P/CAF (p300/CBP-associated factor), HA-tagged, expressed in cells (human, UniProt Q92831 1-832); assay: interaction in cells, western blot (FLAG-Tat, HA-P/CAF)
T2 construct: also called HA-P/CAF

Binder | Kd [1] [µM] | Kd [2] [µM] | binding result [3]
bromodomain of P/CAF (residues 719-832 of SEQ ID NO:2) (other, also called P/CAF bromodomain; the bromodomain) SKEPRDPDQLYSTLKSILQQVKSHQSAWPFMEPVKRTEAPGYYEVIRFPMDLKTMSERLKNRYYVSKKLFMADLQRVFTNCKEYNAAESEYYKCANILEKFFFSKIKEAGLIDK | ~20 | < 300 | –
Tat K50R/K51R mutant protein, FLAG-tagged, expressed in cells (other, also called Tat-RR; Tat double mutant containing K50R/K51R) MEPVDPRLEPWKHPGSQPKTASNNCYCKRCCLHCQVCFTKKGLGISYGRRRRRQRRRAPQDSKTHQVSLSKQPASQPRGDPTGPKESKKKVERETETDPED | – | – | no binding

Reference: patent publication US20040043378A1 (published 2004)
